Article PMC8298264, “Function of cofactor Akirin2 in the regulation of gene expression in model human neutrophil-like HL60 cells” (Bioscience Reports, 2021)

B1: sp¦Q9H0A0¦NAT10_HUMAN (protein, UniProt Q9H0A0 1-1025, looked up)
RNA cytidine acetyltransferase: MHRKKVDNRIRILIENGVAERQRSLFVVVGDRGKDQVVILHHMLSKATVKARPSVLWCYKKELGFSSHRKKRMRQLQKKIKNGTLNIKQDDPFELFIAATNIRYCYYNETHKILGNTFGMCVLQDFEALTPNLLARTVETVEGGGLVVILLRTMNSLKQLYTVTMDVHSRYRTEAHQDVVGRFNERFILSLASCKKCLVIDDQLNILPISSHVATMEALPPQTPDESLGPSDLELRELKESLQDTQPVGVLVDCCKTLDQAKAVLKFIEGISEKTLRSTVALTAARGRGKSAALGLAIAGAVAFGYSNIFVTSPSPDNLHTLFEFVFKGFDALQYQEHLDYEIIQSLNPEFNKAVIRVNVFREHRQTIQYIHPADAVKLGQAELVVIDEAAAIPLPLVKSLLGPYLVFMASTINGYEGTGRSLSLKLIQQLRQQSAQSQVSTTAENKTTTTARLASARTLYEVSLQESIRYAPGDAVEKWLNDLLCLDCLNITRIVSGCPLPEACELYYVNRDTLFCYHKASEVFLQRLMALYVASHYKNSPNDLQMLSDAPAHHLFCLLPPVPPTQNALPEVLAVIQVCLEGEISRQSILNSLSRGKKASGDLIPWTVSEQFQDPDFGGLSGGRVVRIAVHPDYQGMGYGSRALQLLQMYYEGRFPCLEEKVLETPQEIHTVSSEAVSLLEEVITPRKDLPPLLLKLNERPAERLDYLGVSYGLTPRLLKFWKRAGFVPVYLRQTPNDLTGEHSCIMLKTLTDEDEADQGGWLAAFWKDFRRRFLALLSYQFSTFSPSLALNIIQNRNMGKPAQPALSREELEALFLPYDLKRLEMYSRNMVDYHLIMDMIPAISRIYFLNQLGDLALSAAQSALLLGIGLQHKSVDQLEKEIELPSGQLMGLFNRIIRKVVKLFNEVQEKAIEEQMVAAKDVVMEPTMKTLSDDLDEAAKEFQEKHKKEVGKLKSMDLSEYIIRGDDEEWNEVLNKAGPNASIISLKSDKKRKLEAKQEPKQSKKLKNRETKNKKDMKLKRKK
B2: sp¦Q9UFN0¦NPS3A_HUMAN (protein, UniProt Q9UFN0 1-247, looked up)
Protein NipSnap homolog 3A: MLVLRSALTRALASRTLAPQMCSSFATGPRQYDGIFYEFRSYYLKPSKMNEFLENFEKNAHLRTAHSELVGYWSVEFGGRMNTVFHIWKYDNFAHRTEVRKALAKDKEWQEQFLIPNLALIDKQESEITYLVPWCKLEKPPKEGVYELATFQMKPGGPALWGDAFKRAVHAHVNLGYTKLVGVFHTEYGALNRVHVLWWNESADSRAAGRHKSHEDPRVVAAVRESVNYLVSQQNMLLIPTSFSPLK
B3: sp¦O75533¦SF3B1_HUMAN (protein, UniProt O75533 1-1304, looked up)
Splicing factor 3B subunit 1: MAKIAKTHEDIEAQIREIQGKKAALDEAQGVGLDSTGYYDQEIYGGSDSRFAGYVTSIAATELEDDDDDYSSSTSLLGQKKPGYHAPVALLNDIPQSTEQYDPFAEHRPPKIADREDEYKKHRRTMIISPERLDPFADGGKTPDPKMNARTYMDVMREQHLTKEEREIRQQLAEKAKAGELKVVNGAAASQPPSKRKRRWDQTADQTPGATPKKLSSWDQAETPGHTPSLRWDETPGRAKGSETPGATPGSKIWDPTPSHTPAGAATPGRGDTPGHATPGHGGATSSARKNRWDETPKTERDTPGHGSGWAETPRTDRGGDSIGETPTPGASKRKSRWDETPASQMGGSTPVLTPGKTPIGTPAMNMATPTPGHIMSMTPEQLQAWRWEREIDERNRPLSDEELDAMFPEGYKVLPPPAGYVPIRTPARKLTATPTPLGGMTGFHMQTEDRTMKSVNDQPSGNLPFLKPDDIQYFDKLLVDVDESTLSPEEQKERKIMKLLLKIKNGTPPMRKAALRQITDKAREFGAGPLFNQILPLLMSPTLEDQERHLLVKVIDRILYKLDDLVRPYVHKILVVIEPLLIDEDYYARVEGREIISNLAKAAGLATMISTMRPDIDNMDEYVRNTTARAFAVVASALGIPSLLPFLKAVCKSKKSWQARHTGIKIVQQIAILMGCAILPHLRSLVEIIEHGLVDEQQKVRTISALAIAALAEAATPYGIESFDSVLKPLWKGIRQHRGKGLAAFLKAIGYLIPLMDAEYANYYTREVMLILIREFQSPDEEMKKIVLKVVKQCCGTDGVEANYIKTEILPPFFKHFWQHRMALDRRNYRQLVDTTVELANKVGAAEIISRIVDDLKDEAEQYRKMVMETIEKIMGNLGAADIDHKLEEQLIDGILYAFQEQTTEDSVMLNGFGTVVNALGKRVKPYLPQICGTVLWRLNNKSAKVRQQAADLISRTAVVMKTCQEEKLMGHLGVVLYEYLGEEYPEVLGSILGALKAIVNVIGMHKMTPPIKDLLPRLTPILKNRHEKVQENCIDLVGRIADRGAEYVSAREWMRICFELLELLKAHKKAIRRATVNTFGYIAKAIGPHDVLATLLNNLKVQERQNRVCTTVAIAIVAETCSPFTVLPALMNEYRVPELNVQNGVLKSLSFLFEYIGEMGKDYIYAVTPLLEDALMDRDLVHRQTASAVVQHMSLGVYGFGCEDSLNHLLNYVWPNVFETSPHVIQAVMGALEGLRVAIGPCRMLQYCLQGLFHPARKVRDVYWKIYNSIYIGSQDALIAHYPRIYNDDKNTYIRYELDYIL
B4: sp¦Q99496¦RING2_HUMAN (protein, UniProt Q99496 2-336, looked up)
E3 ubiquitin-protein ligase …: SQAVQTNGTQPLSKTWELSLYELQRTPQEAITDGLEIVVSPRSLHSELMCPICLDMLKNTMTTKECLHRFCADCIITALRSGNKECPTCRKKLVSKRSLRPDPNFDALISKIYPSRDEYEAHQERVLARINKHNNQQALSHSIEEGLKIQAMNRLQRGKKQQIENGSGAEDNGDSSHCSNASTHSNQEAGPSNKRTKTSDDSGLELDNNNAAMAIDPVMDGASEIELVFRPHPTLMEKDDSAQTRYIKTSGNATVDHLSKYLAVRLALEELRSKGESNQMNLDTASEKQYTIYIATASGQFTVLNGSFSLELVSEKYWKVNKPMELYYAPTKEHK
B5: sp¦P42167¦LAP2B_HUMAN (protein, UniProt P42167 1-454, looked up)
Lamina-associated polypeptide …: MPEFLEDPSVLTKDKLKSELVANNVTLPAGEQRKDVYVQLYLQHLTARNRPPLPAGTNSKGPPDFSSDEEREPTPVLGSGAAAAGRSRAAVGRKATKKTDKPRQEDKDDLDVTELTNEDLLDQLVKYGVNPGPIVGTTRKLYEKKLLKLREQGTESRSSTPLPTISSSAENTRQNGSNDSDRYSDNEEDSKIELKLEKREPLKGRAKTPVTLKQRRVEHNQSYSQAGITETEWTSGSSKGGPLQALTRESTRGSRRTPRKRVETSEHFRIDGPVISESTPIAETIMASSNESLVVNRVTGNFKHASPILPITEFSDIPRRAPKKPLTRAEVGEKTEERRVERDILKEMFPYEASTPTGISASCRRPIKGAAGRPLELSDFRMEESFSSKYVPKYVPLADVKSEKTKKGRSIPVWIKILLFVVVAVFLFLVYQAMETNQVNPFSNFLHVDPRKSN
B6: sp¦Q92990¦GLMN_HUMAN (protein, UniProt Q92990 2-594, looked up)
Glomulin: AVEELQSIIKRCQILEEQDFKEEDFGLFQLAGQRCIEEGHTDQLLEIIQNEKNKVIIKNMGWNLVGPVVRCLLCKDKEDSKRKVYFLIFDLLVKLCNPKELLLGLLELIEEPSGKQISQSILLLLQPLQTVIQKLHNKAYSIGLALSTLWNQLSLLPVPYSKEQIQMDDYGLCQCCKALIEFTKPFVEEVIDNKENSLENEKLKDELLKFCFKSLKCPLLTAQFFEQSEEGGNDPFRYFASEIIGFLSAIGHPFPKMIFNHGRKKRTWNYLEFEEEENKQLADSMASLAYLVFVQGIHIDQLPMVLSPLYLLQFNMGHIEVFLQRTEESVISKGLELLENSLLRIEDNSLLYQYLEIKSFLTVPQGLVKVMTLCPIETLRKKSLAMLQLYINKLDSQGKYTLFRCLLNTSNHSGVEAFIIQNIKNQIDMSLKRTRNNKWFTGPQLISLLDLVLFLPEGAETDLLQNSDRIMASLNLLRYLVIKDNENDNQTGLWTELGNIENNFLKPLHIGLNMSKAHYEAEIKNSQEAQKSKDLCSITVSGEEIPNMPPEMQLKVLHSALFTFDLIESVLARVEELIEIKTKSTSEENIGIK
B7: sp¦P33176¦KINH_HUMAN (protein, UniProt P33176 2-963, looked up)
Kinesin-1 heavy chain: ADLAECNIKVMCRFRPLNESEVNRGDKYIAKFQGEDTVVIASKPYAFDRVFQSSTSQEQVYNDCAKKIVKDVLEGYNGTIFAYGQTSSGKTHTMEGKLHDPEGMGIIPRIVQDIFNYIYSMDENLEFHIKVSYFEIYLDKIRDLLDVSKTNLSVHEDKNRVPYVKGCTERFVCSPDEVMDTIDEGKSNRHVAVTNMNEHSSRSHSIFLINVKQENTQTEQKLSGKLYLVDLAGSEKVSKTGAEGAVLDEAKNINKSLSALGNVISALAEGSTYVPYRDSKMTRILQDSLGGNCRTTIVICCSPSSYNESETKSTLLFGQRAKTIKNTVCVNVELTAEQWKKKYEKEKEKNKILRNTIQWLENELNRWRNGETVPIDEQFDKEKANLEAFTVDKDITLTNDKPATAIGVIGNFTDAERRKCEEEIAKLYKQLDDKDEEINQQSQLVEKLKTQMLDQEELLASTRRDQDNMQAELNRLQAENDASKEEVKEVLQALEELAVNYDQKSQEVEDKTKEYELLSDELNQKSATLASIDAELQKLKEMTNHQKKRAAEMMASLLKDLAEIGIAVGNNDVKQPEGTGMIDEEFTVARLYISKMKSEVKTMVKRCKQLESTQTESNKKMEENEKELAACQLRISQHEAKIKSLTEYLQNVEQKKRQLEESVDALSEELVQLRAQEKVHEMEKEHLNKVQTANEVKQAVEQQIQSHRETHQKQISSLRDEVEAKAKLITDLQDQNQKMMLEQERLRVEHEKLKATDQEKSRKLHELTVMQDRREQARQDLKGLEETVAKELQTLHNLRKLFVQDLATRVKKSAEIDSDDTGGSAAQKQKISFLENNLEQLTKVHKQLVRDNADLRCELPKLEKRLRATAERVKALESALKEAKENASRDRKRYQQEVDRIKEAVRSKNMARRGHSAQIAKPIRPGQHPAASPTHPSAIRGGGAFVQNSQPVAVRGGGGKQV
B8: sp¦O75607¦NPM3_HUMAN (protein, UniProt O75607 2-178, looked up)
Nucleoplasmin-3: AAGTAAALAFLSQESRTRAGGVGGLRVPAPVTMDSFFFGCELSGHTRSFTFKVEEEDDAEHVLALTMLCLTEGAKDECNVVEVVARNHDHQEIAVPVANLKLSCQPMLSLDDFQLQPPVTFRLKSGSGPVRITGRHQIVTMSNDVSEEESEEEEEDSDEEEVELCPILPAKKQGGRP
B9: sp¦Q96HE7¦ERO1A_HUMAN (protein, UniProt Q96HE7 24-468, looked up)
ERO1-like protein alpha: EEQPPETAAQRCFCQVSGYLDDCTCDVETIDRFNNYRLFPRLQKLLESDYFRYYKVNLKRPCPFWNDISQCGRRDCAVKPCQSDEVPDGIKSASYKYSEEANNLIEECEQAERLGAVDESLSEETQKAVLQWTKHDDSSDNFCEADDIQSPEAEYVDLLLNPERYTGYKGPDAWKIWNVIYEENCFKPQTIKRPLNPLASGQGTSEENTFYSWLEGLCVEKRAFYRLISGLHASINVHLSARYLLQETWLEKKWGHNITEFQQRFDGILTEGEGPRRLKNLYFLYLIELRALSKVLPFFERPDFQLFTGNKIQDEENKMLLLEILHEIKSFPLHFDENSFFAGDKKEAHKLKEDFRLHFRNISRIMDCVGCFKCRLWGKLQTQGLGTALKILFSEKLIANMPESGPSYEFHLTRQEIVSLFNAFGRISTSVKELENFRNLLQNIH

System: human HL60 cells
Experiment: SWATH-MS proteomics, differential protein representation, akirin2 KO vs WT HL60 cells
Format: cell-based
Details: akirin2 KO vs WT HL60 cells
Summary of the method: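 Differential representation compares akirin2 KO with WT HL60 across three biological replicates, 5 µg digest each, acquired by data-independent SWATH on a 120-min gradient. Library built from combined IDA runs searched with Paragon; proteins accepted at 1% FDR, with total-area-sum normalization.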

[1] = SWATH-MS, under-represented in KO
[2] = sheet "Under-represented in KO"

| Molecule | Fold Change [1] | Log (Fold Change) [1] | Fold Change [2] | Log (Fold Change) [2] |
| --- | --- | --- | --- | --- |
| B1 | 0.7033 | -0.1528 |  |  |
| B2 | 0.7109 | -0.1482 |  |  |
| B3 | 0.7121 | -0.1475 |  |  |
| B4 | 0.6992 | -0.1554 |  |  |
| B5 | 0.7013 | -0.1541 |  |  |
| B6 |  |  | 0.3264 | -0.4863 |
| B7 | 0.7087 | -0.1495 |  |  |
| B8 | 0.6936 | -0.1589 |  |  |
| B9 | 0.7045 | -0.1521 |  |  |
